The assay concerns the target T1, murine DLL3 (murine, UniProt O88516 33-592).
T1 construct: whole, on cells; Expressed endogenously on the murine SCLC (mSCLC) cell line; also called mDLL3; mouse DLL3
T1 sequence (looked up): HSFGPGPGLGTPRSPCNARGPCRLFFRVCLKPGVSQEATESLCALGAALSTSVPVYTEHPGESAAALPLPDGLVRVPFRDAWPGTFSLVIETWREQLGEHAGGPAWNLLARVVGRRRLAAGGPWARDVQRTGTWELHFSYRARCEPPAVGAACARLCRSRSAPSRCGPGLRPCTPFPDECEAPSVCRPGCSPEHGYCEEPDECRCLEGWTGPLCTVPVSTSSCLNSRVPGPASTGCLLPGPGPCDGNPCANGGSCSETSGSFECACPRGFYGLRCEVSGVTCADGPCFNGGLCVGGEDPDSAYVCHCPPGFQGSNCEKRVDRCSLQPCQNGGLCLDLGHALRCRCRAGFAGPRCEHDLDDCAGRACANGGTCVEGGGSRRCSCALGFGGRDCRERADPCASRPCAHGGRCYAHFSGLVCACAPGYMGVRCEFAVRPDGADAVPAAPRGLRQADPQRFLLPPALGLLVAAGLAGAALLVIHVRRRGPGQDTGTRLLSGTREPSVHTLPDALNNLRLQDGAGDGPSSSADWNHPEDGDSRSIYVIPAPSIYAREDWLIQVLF
Description: told in words; shown by lysis and IFN-γ release of CAR T cells in coculture with mSCLC cells that express murine DLL3. The procedure:
The CAR consists of the SC16.8 single-chain variable fragment (scFv) and murine CD28 and CD3ζ domains. FIG. 2B measures the IFN-γ levels in supernatant of 24-hour coculture of murine CAR T cells with or without mSCLC cells. **P<0.01, ****P<0.0001 (2-way ANOVA, n=2). FIG. 2C depicts the survival of mice with metastatic mSCLC that were treated with the indicated doses of SC16.8m28mz CAR T cells (day 7) with or without 50 mg/kg cyclophosphamide pretreatment (day 6). **P<0.01 (log-rank test, n=4-6). FIG. 2D is a schematic of CAR design with SC16.8 scFv, murine CD28 and CD3ζ signaling domains, and the murine 1112 fusion transgene or murine 1118 transgene. IRES, internal ribosome entry site. FIG. 2E illustrates IFN-γ production by the respective CAR T cells in the absence and presence of mSCLC cells. *P<0.05, **P<0.01, ***P<0.001, ****P<0.0001 (2-way ANOVA and Student's t test, n=2-3). FIG. 2F depicts a luciferase killing assay with SC16.8 CAR T cells that express IL-12, IL-18, or no cytokine and 4H11 CAR T cells as negative control (n=3). FIGS. 2G and 2H depict serum IFN-γ and TNF-α levels (n=12-15) (2G) and circulating CAR T cells (n=5) (2H) in the blood of mice collected 3 days after treatment with the indicated CAR T cells. **P<0.01, ***P<0.001, ****P<0.0001 (1-way ANOVA). […] FIG. 2J illustrates the survival of mice in FIG. 2I. *P<0.05, ****P<0.0001 (log-rank test). […]

B1: SC16.8m28mz CAR (SC16.8 scFv with Flag-tag, murine CD28 transmembrane and intracellular domain and murine CD3zeta intracellular domain, on murine T cells) (scFv, V domains shown)
VH: QAQLQQSGAELVRPGTSVKVSCKASGYAFTNYLIEWVKQRPGQGLEWIGVINPGTGGTNYNENFKGKATLTADKSSSTAYMQLSSLTSDDSAVYFCARSPYDYHEGAMDYWGQGTSVTVSS
VL: EIQMTQSPSSMSASLGDRITITCQATQDIVKNLNWYQQKPGKPPSFLIYYAIELAEGVPSRFSGSGSGSDYSLTISNLESEDFADYYCLQFYEFPFTFGAGTKLELK
notes: Tested as a membrane CAR on transduced murine T cells; VH and VL are joined as an scFv; also called SC16.8 CAR (murine CAR T cells); the presently disclosed CAR
As to B1, the binding result is “binds”.

These data come from US20260224629A1 (Memorial Sloan Kettering, published 2026).
